No end group written: not given here.

The source of these data is patent publication US11780903B2, “Peptide suppressing binding of CTLA4 to B7 proteins, and use thereof” (TOAGOSEI CO., LTD., priority 2020, dated 2023).

Experiment [1] has as its target T1, binding of CTLA4 to B7-1 (Homo sapiens, UniProt P16410).
T1 construct: purchased BPS Bioscience BPS #72009
T1 sequence (P16410 36-161 limits assumed): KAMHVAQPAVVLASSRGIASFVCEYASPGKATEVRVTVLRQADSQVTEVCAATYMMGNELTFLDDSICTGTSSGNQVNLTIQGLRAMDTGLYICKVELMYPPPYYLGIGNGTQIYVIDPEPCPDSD
As to the kind of experiment: Test for evaluating binding inhibitory properties between CTLA4 and B7-1 (BPS #72009 inhibitor screening assay kit, chemiluminescence). The settings on record: peptide concentration 5 μM and/or 10 μM as in Table 2; plate-coated CTLA4, biotin-labeled B7-1; n=2 wells; versus no peptide added. The method, then: The binding inhibitory properties between CTLA4 and B7-1 were evaluated for the 6 kinds of sample peptides synthesized in the above-described Test Example 1.
In this test, Test Examples 2-1 to 2-9 were set according to the kinds of sample peptide used and the peptide concentration as shown in Table 2 below. In addition, a peptide-free group was set as Test Example 2-10. The tests of the above-described 10 categories in total were carried out as follows. The numbers “1 to 10” shown in the “No.” column of Table 2 represent “Test Examples 2-1 to 2-10” in Test Example 2. In addition, the number (n) of test wells in each of the above-described examples was set to 2.
In Test Example 2-1, the following kit currently available on the market was used. CTLA4 B7-1 (Biotinylated) inhibitor screening assay kit (manufactured by BPS Bioscience, BPS #72009)
The operation for this test example was based on “ASSAY PROTOCOL” described in the data sheet of the above-described kit. A brief procedure is shown below.
First, each well of a 96-well plate was coated with CTLA4. Specifically, a CTLA4 solution (2 μg/mL) was dispensed into each well of the 96-well plate, and the plate was incubated overnight at 4° C.
Subsequently, the CTLA4 solution was removed, and each well was washed.
Subsequently, blocking was performed. Specifically, a blocking buffer contained in the kit was dispensed into each well, and the plate was incubated for 1 hour at room temperature.
Subsequently, a solution of the Sample 1 was dispensed into each well, and the plate was incubated for 1 hour at room temperature.
Subsequently, a biotin-labeled B7-1 solution (1.25 ng/mL) was dispensed into each well of the 96-well plate, and the plate was incubated for 2 hours at room temperature.
After the above-described incubation, the peptide solution was removed, and each well was washed. […]
Subsequently, the blocking buffer was removed, a chemiluminescent reagent contained in the above-described kit was dispensed into each well, and the chemiluminescence intensity in each well was measured with a luminometer. […]

The target in experiment [2] is T2, binding of CTLA4 to B7-2 (Homo sapiens, UniProt P16410).
T2 construct: purchased BPS Bioscience BPS #79658
T2 sequence (P16410 36-161 limits assumed): T1 sequence (P16410 36-161 limits assumed)
In words: Test for evaluating binding inhibitory properties between CTLA4 and B7-2 (BPS #79658 inhibitor screening assay kit, chemiluminescence). Conditions: peptide concentration 5 μM and/or 10 μM as in Table 2; plate-coated CTLA4, biotin-labeled B7-2; n=2 wells; versus no peptide added. Here is the method: The binding inhibitory properties between CTLA4 and B7-2 were evaluated for the 6 kinds of sample peptides synthesized in the above-described Test Example 1.
In this test, Test Examples 3-1 to 3-9 were set according to the kind of sample peptide used and the peptide concentration as shown in Table 2 mentioned above. In addition, a peptide-free group was set as Test Example 3-10. The tests of the above-described 10 categories in total were carried out as follows. The numbers “1 to 10” shown in the “No.” column of Table 2 represent “Test Examples 3-1 to 3-10” in Test Example 3. In addition, the number (n) of test wells in each of the above-described examples was set to 2.
In Test Example 3-1, the following kit currently available on the market was used. CTLA4 B7-2 (Biotinylated) inhibitor screening assay kit (BPS #79658)
The operation for this test example was based on “ASSAY PROTOCOL” described in the data sheet of the above-described kit.
Test Example 3-1 was performed using the same materials and processes as those of Test Example 2-1 except that the above-described kit was used.

As for “KKRTLRKNDR KKR (KKRTLRKNDRKKR-NH2) [Sample 6]”, the “suppression of binding of CTLA4 to B7-1 (chemiluminescence intensity, FIG. 1)” value in experiment [1] is reported as “not suppressed”. Moreover, in experiment [2], the “suppression of binding of CTLA4 to B7-2 (chemiluminescence intensity, FIG. 2)” value was “not suppressed”.

As for “MQIPQAPWPVVWAVLQLGWR (MQIPQAPWPVVWAVLQLGWR-NH2) [Sample 4]”, in experiment [1], the “suppression of binding of CTLA4 to B7-1 (chemiluminescence intensity, FIG. 1)” value is listed as “no action of suppressing the binding of CTLA4 to B7-1 was observed”. Still for that read-out and setting: the entry for “MQIPQAPWPVVWAVLQLGWRMQIPQAPWRPVVWAVLQLGW [Sample 5]” is “no action of suppressing the binding of CTLA4 to B7-1 was observed”.
